Experimental data taken from patent US10407503B2, “Fully human antibodies and fragments recognizing human c-Met” (THE REGENTS OF THE UNIVERSITY OF CALIFORNIA, priority 2012, dated 2019).

Key:
[1] = target: T1, c-MET on the surface of Hcc827 or Hcc827-GR6 cells (human, UniProt P08581 25-1390); test: phage flow cytometry on Hcc827-GR6 cells, bound phage detected with FITC anti-M13 antibody
T1 construct: whole, on cells; The cells express the receptor endogenously, and MET is amplified in Hcc827-GR6; also called cell surface MET
Procedure: (§1) For phage antibodies, flow cytometry was used to confirm their binding to c-MET expressing cells. Bacteria culture containing phage was concentrated 30 times into PBS according to published method (Antibody Engineering Methods and Protocols, Benny K. C. Lo). $2 \sim 5 \times 10^5$ c-MET positive Hcc827 or Hcc827-GR6 cells (Engelman et. al, Science, 2007) were incubated with 100 ul concentrated phage and 30 ul 4% milk-PBS on ice for 1 hour. Cells were then washed using flow buffer (PBS, 1% FBS, 2 mM EDTA), and the binding phage antibodies were detected by FITC conjugated anti-M13 monoclonal antibody (Santa Cruz Biotechnology, Cat# sc-53005 Fitc).

cell surface MET = target: T2, cell surface MET (Homo sapiens, UniProt P08581); test: Phage flow cytometry for binding to c-MET expressing cells; conditions: phage antibodies; Hcc827 or Hcc827-GR6 cells; FITC anti-M13 detection
T2 construct: endogenous in cells; host or cells: Hcc827 or Hcc827-GR6
Procedure: as §1, with “2˜5×105” for “$2 \sim 5 \times 10^5$”
93 clones were randomly picked after 3 rounds of panning. The phage-containing supernatant was used for phage ELISA. Top 64 clones with highest A405 signal were sequenced, among which 19 distinctive clones with different sequences were identified. These distinctive clones were then tested for binding to cell surface MET by phage flow experiments. 8 of these clones show good binding to cell surface MET and were selected for the subsequent purification and characterizations.

T1 sequence (P08581 25-1390): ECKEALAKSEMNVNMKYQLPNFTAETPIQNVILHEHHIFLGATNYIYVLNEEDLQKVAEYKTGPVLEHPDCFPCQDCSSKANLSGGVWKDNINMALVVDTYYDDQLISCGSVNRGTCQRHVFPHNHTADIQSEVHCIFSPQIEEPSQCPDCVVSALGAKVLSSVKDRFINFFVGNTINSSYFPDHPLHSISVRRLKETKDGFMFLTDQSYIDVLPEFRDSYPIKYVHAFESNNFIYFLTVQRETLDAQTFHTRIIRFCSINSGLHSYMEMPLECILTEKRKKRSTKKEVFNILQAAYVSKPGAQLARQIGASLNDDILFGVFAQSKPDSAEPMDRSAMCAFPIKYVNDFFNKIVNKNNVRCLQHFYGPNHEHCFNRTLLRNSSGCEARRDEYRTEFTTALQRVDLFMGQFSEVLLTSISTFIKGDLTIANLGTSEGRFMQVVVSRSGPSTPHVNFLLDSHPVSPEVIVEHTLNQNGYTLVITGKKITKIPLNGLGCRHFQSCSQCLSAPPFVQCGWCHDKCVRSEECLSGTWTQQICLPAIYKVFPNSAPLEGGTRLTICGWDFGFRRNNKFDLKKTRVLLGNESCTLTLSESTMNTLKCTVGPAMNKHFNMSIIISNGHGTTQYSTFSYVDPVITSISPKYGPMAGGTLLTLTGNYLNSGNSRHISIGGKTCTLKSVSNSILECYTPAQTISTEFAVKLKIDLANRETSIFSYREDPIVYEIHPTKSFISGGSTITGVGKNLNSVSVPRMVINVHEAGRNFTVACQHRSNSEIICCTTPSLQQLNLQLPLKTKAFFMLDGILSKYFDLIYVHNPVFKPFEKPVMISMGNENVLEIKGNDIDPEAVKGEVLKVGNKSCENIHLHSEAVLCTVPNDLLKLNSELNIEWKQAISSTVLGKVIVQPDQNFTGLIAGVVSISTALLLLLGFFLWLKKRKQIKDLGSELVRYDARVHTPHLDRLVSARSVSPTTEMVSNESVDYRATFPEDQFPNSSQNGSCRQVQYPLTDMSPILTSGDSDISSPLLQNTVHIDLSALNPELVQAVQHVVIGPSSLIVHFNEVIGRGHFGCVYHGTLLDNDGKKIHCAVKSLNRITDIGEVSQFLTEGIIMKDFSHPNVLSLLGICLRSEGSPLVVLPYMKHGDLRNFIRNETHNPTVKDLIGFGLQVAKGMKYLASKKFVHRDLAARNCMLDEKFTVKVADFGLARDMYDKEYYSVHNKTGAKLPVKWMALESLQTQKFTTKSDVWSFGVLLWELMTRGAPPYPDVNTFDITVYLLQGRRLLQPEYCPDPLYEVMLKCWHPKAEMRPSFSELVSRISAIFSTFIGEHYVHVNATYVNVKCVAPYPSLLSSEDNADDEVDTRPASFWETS
T2 sequence (P08581 25-1390): as above

Row | Molecule | binding result [1] | binding to cell surface MET (cell surface MET)
1 | E9 ScFv antibody (phage-displayed) (scFv, The fusion to the phage coat protein is not described) scFv: QVQLQESGGGVVQPGRSLRLSCAASGFTFSSYGMHWVRQAPGKGLEWVSAIGSSGGSTHDADTVKGRFTISRDNAKNSLYLQMNSLRAEDTAVYYCARDRARGFDYWGQGTLVTVSSGGGGGSGGGGSGGGGSEIVLTQSPSTLSASIGDRVTITCRASQGISSYLAWYQQKPGKAPKLLIYGASSLQSGVPSRFSGRGSGADFTLTISSLQPEDFATYYCQQLISYPLTFGGGTKVEIKR | binds | –
2 | E9 ScFv antibody: human anti-c-Met ScFv comprising SEQ ID NO:27; tested as phage-displayed clone (protein, phage-displayed; synthetic E9 ScFv sequence) scFv: QVQLQESGGGVVQPGRSLRLSCAASGFTFSSYGMHWVRQAPGKGLEWVSAIGSSGGSTHDADTVKGRFTISRDNAKNSLYLQMNSLRAEDTAVYYCARDRARGFDYWGQGTLVTVSSGGGGGSGGGGSGGGGSEIVLTQSPSTLSASIGDRVTITCRASQGISSYLAWYQQKPGKAPKLLIYGASSLQSGVPSRFSGRGSGADFTLTISSLQPEDFATYYCQQLISYPLTFGGGTKVEIKR | – | can bind to cell surface MET
3 | G1 ScFv antibody (phage-displayed) (scFv, The fusion to the phage coat protein is not described) scFv: QVQLQESGGGVVQPGGSLRLSCAASGFTFSSYSMNWVRQAPGKGLEWVSSISSSSSYIYYADSVKGRFTISRDNAKNSLYLQMNSLRAEDTAVYYCARDLPSDDYGDYDYYYYGMDVWGQGTTVTVSSGGGGGSGGGGSGGGGSQSVLTQPPSASGTPGQRVTLFCSGSSSNIASNSVKWYQQPPQRAPKLLMFSDDQRPSGVPVRFSASKSGTSASLAISGLQSEDEADYYCAAWDDSLNAEVFGGGTKVTVLG | binds | –
4 | G1 ScFv antibody: human anti-c-Met ScFv comprising SEQ ID NO:30; tested as phage-displayed clone (protein, phage-displayed; synthetic G1 ScFv sequence) scFv: QVQLQESGGGVVQPGGSLRLSCAASGFTFSSYSMNWVRQAPGKGLEWVSSISSSSSYIYYADSVKGRFTISRDNAKNSLYLQMNSLRAEDTAVYYCARDLPSDDYGDYDYYYYGMDVWGQGTTVTVSSGGGGGSGGGGSGGGGSQSVLTQPPSASGTPGQRVTLFCSGSSSNIASNSVKWYQQPPQRAPKLLMFSDDQRPSGVPVRFSASKSGTSASLAISGLQSEDEADYYCAAWDDSLNAEVFGGGTKVTVLG | – | can bind to cell surface MET
5 | H5 ScFv antibody (phage-displayed) (scFv, The fusion to the phage coat protein is not described) scFv: QVQLQESGGGLVQPGGSLRLSCAASGFTFSNYAMSWVRQAPGKGLEWVSAISGSGGSTYYADSVKGRFTISRDNSKNTLYLQMNSLRAEDTAVYYCAKDRFRAAAYWGQGTLVTVSSGGGGGSGGGGSGGGGSQSVLTQPPSVSAAPGQKVTISCTGSSSNIGAGYDVHWYQQLPGTAPKLLIYGNSNRPSGVPDRFSGSKSGTSASLAISGLQSEDEADYYCAAWDDILNGEIFGGGTKVTVLG | binds | –
6 | H5 ScFv antibody: human anti-c-Met ScFv comprising SEQ ID NO:32; tested as phage-displayed clone (protein, phage-displayed; synthetic H5 ScFv sequence) scFv: QVQLQESGGGLVQPGGSLRLSCAASGFTFSNYAMSWVRQAPGKGLEWVSAISGSGGSTYYADSVKGRFTISRDNSKNTLYLQMNSLRAEDTAVYYCAKDRFRAAAYWGQGTLVTVSSGGGGGSGGGGSGGGGSQSVLTQPPSVSAAPGQKVTISCTGSSSNIGAGYDVHWYQQLPGTAPKLLIYGNSNRPSGVPDRFSGSKSGTSASLAISGLQSEDEADYYCAAWDDILNGEIFGGGTKVTVLG | – | can bind to cell surface MET
7 | F1 ScFv antibody: human anti-c-Met ScFv comprising SEQ ID NO:28; tested as phage-displayed clone (protein, phage-displayed; synthetic F1 ScFv sequence) scFv: QVQLVQSGAEVKKPGASVKVSCKASGYTFTDYYMHWVRQAPGEGLEWMGWMNPNSGGTNYAQKFQGRVTMTRDTSISTAYMELSRLRSDDTAVYYCARSHYWDSWSPGTLVTVSSGGGGGSGGGGSGGGGSSALTQPASVSGSPGQSITISCTGTSGDVGGYNYVSWYQQHPGKAPKLMIYDVSNRPSGVSNRFSGSKSGNTASLTISGLQAEDEADYYCTSYAGSRNLVFGGGTKLTVLG | – | can bind to cell surface MET
8 | F11 ScFv antibody (phage-displayed) (scFv, The fusion to the phage coat protein is not described) scFv: QVQLQESGGGLLQPGGSLRLSCAASRFTFSNYAMSWVRQAPGKGLEWVSAISGSGASTYYADSVKGRFTISRDNSKNTLYLQMNSLRAEDTAVYYCSNLYGDYDYWGQGTLVTVSSGGGGGSGGGGSGGGGSQSVLTQPASVSGSPGQSITISCTGTSSDVGGYNYVSWYQQHPGKAPKLMIYDVSNRPSGVSNRFSGSKSGNTASLTISGLQAEDEADYYCSSYTSSSTLLFGGGTKLTVLG | binds | –
9 | F11 ScFv antibody: human anti-c-Met ScFv comprising SEQ ID NO:29; tested as phage-displayed clone (protein, phage-displayed; synthetic F11 ScFv sequence) scFv: QVQLQESGGGLLQPGGSLRLSCAASRFTFSNYAMSWVRQAPGKGLEWVSAISGSGASTYYADSVKGRFTISRDNSKNTLYLQMNSLRAEDTAVYYCSNLYGDYDYWGQGTLVTVSSGGGGGSGGGGSGGGGSQSVLTQPASVSGSPGQSITISCTGTSSDVGGYNYVSWYQQHPGKAPKLMIYDVSNRPSGVSNRFSGSKSGNTASLTISGLQAEDEADYYCSSYTSSSTLLFGGGTKLTVLG | – | can bind to cell surface MET
10 | C2 ScFv antibody (phage-displayed) (scFv, The fusion to the phage coat protein is not described) scFv: QVQLQESGGGLVQPGGSLRLSCAASGFTFSSYAMSWVRQAPGKGLEWVSAISGSGGSTYYADSVKGRFTISRDNSKNTLYLQMNSLRAEDTAVYYCASQHVGEQSRYFDYWGQGTLVTVSSGGGGGSGGGGSGGGGSDIVMTQSPSSLSASIGDRVTITCRASHSISSYVNWYQKKPGKAPNLLIYAASYLPRGVPSRFSGSGLGTDFTLTISNLQPEDFATYYCQESYSTPYSFGQGTKVDIKR | binds | –
11 | C2 ScFv antibody: human anti-c-Met ScFv comprising SEQ ID NO:26; tested as phage-displayed clone (protein, phage-displayed; synthetic C2 ScFv sequence) scFv: QVQLQESGGGLVQPGGSLRLSCAASGFTFSSYAMSWVRQAPGKGLEWVSAISGSGGSTYYADSVKGRFTISRDNSKNTLYLQMNSLRAEDTAVYYCASQHVGEQSRYFDYWGQGTLVTVSSGGGGGSGGGGSGGGGSDIVMTQSPSSLSASIGDRVTITCRASHSISSYVNWYQKKPGKAPNLLIYAASYLPRGVPSRFSGSGLGTDFTLTISNLQPEDFATYYCQESYSTPYSFGQGTKVDIKR | – | can bind to cell surface MET
